These are literature values, as cited in publication PMC6667139.

The target of this data set is TGFβ receptor I and II (Homo sapiens) (UniProt P36897).

pKd: −log10 of the molar value.

Chain of TGFβ receptor I and II (Homo sapiens) (P36897 34-126, chain 1 of 2): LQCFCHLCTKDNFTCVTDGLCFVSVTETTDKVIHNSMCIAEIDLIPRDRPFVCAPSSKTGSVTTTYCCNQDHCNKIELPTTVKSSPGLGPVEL
Chain of TGFβ receptor I and II (Homo sapiens) (partner, as listed by the source, chain 2 of 2): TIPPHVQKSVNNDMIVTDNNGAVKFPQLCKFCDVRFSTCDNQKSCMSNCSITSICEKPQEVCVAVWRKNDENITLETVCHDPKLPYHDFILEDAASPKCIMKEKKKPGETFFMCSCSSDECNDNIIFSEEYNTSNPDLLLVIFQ
Chain of TGFβ (P01137 279-390): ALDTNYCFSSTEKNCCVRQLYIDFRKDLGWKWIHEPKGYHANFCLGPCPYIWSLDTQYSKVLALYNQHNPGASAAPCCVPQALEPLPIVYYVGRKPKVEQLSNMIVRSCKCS

Regarding TGFβ (from UniProt P01137), the negative-log Kd (pKd) (as a rule, the Kd on a negative log10 scale, so that one unit is a factor of ten) was 10.30.
